Values quoted from earlier work in US20250341526A1, “NOVEL DYES” (Quantum-Si Incorporated, priority 2024, published 2025).
Substitutions are numbered along the chain they refer to.

B1: PS521: amino acid recognition protein, SEQ ID NO: 149 (protein)
chain: MLCGRVFRSGEPTYSCRDCAVDPTCVLCIDCFNNGAHRKHKYRMSTSSGGGYCDCGDKEAWKTDPLCEIHRK
modifications: Lingula anatine
B2: Homo sapiens UBR2: amino acid recognition protein, SEQ ID NO: 174 (protein, listed as Homo sapiens)
chain: MGPLGSLCGRVFKVGEPTYSCRDCAVDPTCVLCMECFLGSIHRDHRYRMTTSGGGGFCDCGDTEAWKEGPYCQKHE
B3: PS536: amino acid recognition protein, SEQ ID NO: 164 (protein, listed as Aphis gossypii)
chain: MVCGRVFKMGEPTYNCRECGMDSTCVLCVDCFKRSPHKNHKYKMGTSYGGGCCDCGDVEAWKHDPYCQTHKL
B4: PS522: amino acid recognition protein, SEQ ID NO: 150 (protein, listed as Vombatus ursinus)
chain: MLCGKVFKSGETTYSCRDCAIDPTCVLCMNCFQSSVHKNHRYKMHTSTGGGFCDCGDTEAWKTGPFCTIHEP
B5: PS525: amino acid recognition protein, SEQ ID NO: 153 (protein, listed as Mus musculus)
chain: B4 chain with N30D, T68V, I69D
B6: PS529: amino acid recognition protein, SEQ ID NO: 157 (protein)
chain: B4 chain with S9G, N30D, S34N, V36I, F66L, T68A, I69N
modifications: Chelonia mydas
B7: PS615: amino acid recognition protein, SEQ ID NO: 175 (protein, listed as Kluyveromyces marxianus)
chain: MVNEHRGSQCSKQCHGTETVYYCFDCTKNPLYEICEECFDETQHMGHRYTSRVVTRPEGKVCHCGDISGYNNPEKAFQCKI
B8: PS616: amino acid recognition protein, SEQ ID NO: 176 (protein, listed as Kluyveromyces lactis)
chain: B7 chain with V2H, E4D, E37D, T42S, M45I, G69S, N72D, E74K, K80R
B9: PS542: amino acid recognition protein, SEQ ID NO: 171 (protein, listed as Trichuris suis)
chain: MRCNHVFANGEATYSCRGCAADPTCVLCASCFELSAHKEHKYMITTSSGTGYCDCGDPEAWKADPFCQQHQP
B10: PS530: amino acid recognition protein, SEQ ID NO: 158 (protein, listed as Acropora millepora)
chain: MLCGKVFKVGEPTYSCRDCGYDNTCVLCINCFQKSIHKNHHYKMNTSGGGGVCDCGDVEAWKEGEACEIHQQ
B11: PS532: amino acid recognition protein, SEQ ID NO: 160 (protein, listed as Schizosaccharomyces cryophilus)
chain: MSCGRIFKKGEVFYRCKTCSVDSNSALCVKCFRATDHHGHETSFTISAGSGGCCDCGNSAAWIRDMPCKIHNR
B12: PS617: amino acid recognition protein, SEQ ID NO: 177 (protein, listed as Eremothecium sinecaudum)
chain: MPKEHRGTSCNKHCQPTETVYYCFDCTKNPLYEICEECFDADKHLGHRWTSKVVSRPEGKICHCGDPSGLTDPENGYECKN
B13: PS540: amino acid recognition protein, SEQ ID NO: 169 (protein, listed as Clathrospora elynae)
chain: MPCGHIFKNGEATYRCKTCTADDTCVLCARCFDASDHEGHQVFVSVSPGNSGCCDCGDDEAWVRPVHCNMHSA
B14: PS541: amino acid recognition protein, SEQ ID NO: 170 (protein)
chain: MRCGHIFRAGEATYRCITCAADDTCVLCSRCFDASDHTGHQYQISLSSGNCGCCDCGDEEAWRLPLFCAIHTD
modifications: Aspergillus neoniger
B15: PS520: amino acid recognition protein, SEQ ID NO: 148 (protein, listed as Monopterus albus)
chain: MLCGRVFKEGETVYSCRDCAIDPTCVLCMDCFQDSVHKSHRYKMHASSGGGFCDCGDVEAWKIGPCCSKHDP
B16: PS526: amino acid recognition protein, SEQ ID NO: 154 (protein, listed as Maylandia zebra)
chain: B15 chain with C66Y
B17: PS528: amino acid recognition protein, SEQ ID NO: 156 (protein, listed as Kluyveromyces lactis)
chain: MHSKFNHAGRICGAKFRVGEPIYRCKECSFDDTCVLCVNCFNPKDHVGHHVYTSICTEFNNGICDCGDKEAWNHELNCKGAED
B18: PS533: amino acid recognition protein, SEQ ID NO: 161 (protein, listed as Contarinia nasturtii)
chain: MVCGRVFKMNEPFYSCRECGMDPTCVLCVNCFKQSAHRHHKYKMGTSAGGGCCDCGDNEAWKQDHYCDEHTK
B19: PS618: amino acid recognition protein, SEQ ID NO: 178 (protein, listed as Zygosaccharomyces bailii)
chain: MNASHKGAMCSKQCYPTETVFYCFTCTTNPLYEICESCFDEEKHRGHLYTAKVVVRPEGRVCHCGDPFVFKEPRFAFLCKN
B20: PS619: amino acid recognition protein, SEQ ID NO: 179 (protein, listed as Vanderwaltozyma polyspora)
chain: MENLHIGSCCNRQCYPTQTVYYCLTCTINPLYEICELCFDEDKHVGHTYISKSVIRPEGKVCHCGNPNVFKKPEFAFNCKN
B21: PS544: amino acid recognition protein, SEQ ID NO: 173 (protein, listed as Homo sapiens)
chain: MGPLGSLCGRVFKSGETTYSCRDCAIDPTCVLCMDCFQDSVHKNHRYKMHTSTGGGFCDCGDTEAWKTGPFCVNHEP
B22: PS537: amino acid recognition protein, SEQ ID NO: 165 (protein, listed as Aedes aegypti)
chain: MVCGRVFKIGEPTYSCRECSMDPTCVLCSSCFKKSSHRLHKYKMSTSGGGGCCDCGDHEAWKRDPSCEEHAV
B23: PS535: amino acid recognition protein, SEQ ID NO: 163 (protein, listed as Mus musculus)
chain: MLCGRVFKVGEPTYSCRDCAVDPTCVLCMECFLGSIHRDHRYRMTTSGGGGFCDCGDTEAWKEGPYCQKHKL
B24: PS527: amino acid recognition protein, SEQ ID NO: 155 (protein, listed as Mizuhopecten yessoensis)
chain: MLCGKVFKYGEPTYSCRDCANDPTCVLCIDCFQKSAHKKHRYKMSTSGGGGYCDCGDSEAWKTAPFCSNHKA
B25: PS538: amino acid recognition protein, SEQ ID NO: 166 (protein, listed as Saccharomyces cerevisiae)
chain: MGDVHKHTGRNCGRKFKIGEPLYRCHECGCDDTCVLCIHCFNPKDHVNHHVCTDICTEFTSGICDCGDEEAWNSPLHCKAEEQ
B26: PS25: amino acid recognition protein, SEQ ID NO: 167 (protein, listed as Saccharomyces cerevisiae)
chain: B25 chain with D3S
B27: PS523: amino acid recognition protein, SEQ ID NO: 151 (protein, listed as Saccharomycetaceae sp.)
chain: MAKSHRHTGRNCGRAFQPGEPLYRCQECAYDDTCVLCISCFNPDDHVNHHVSTHICNELHDGICDCGDAEAWNVPLHCKAEED
B28: PS539: amino acid recognition protein, SEQ ID NO: 168 (protein, listed as Kazachstania africana)
chain: MQTSFTHKGRNCGRKFKVGEPLYRCHECGFDDTCVLCIHCFNPADHENHHIYTDICNDFTSGICDCGDTEAWNGDLHCKAEEI
B29: PS534: amino acid recognition protein, SEQ ID NO: 162 (protein)
chain: MKCGHIFRKGEVFYRCKTCSVDSNSALCVKCFRATSHKDHETSFTVSAGSGGCCDCGNAAAWIGDVSCKIHSH
modifications: Schizosaccharomyces pombe
B30: PS524: amino acid recognition protein, SEQ ID NO: 152 (protein, listed as Drosophila ficusphila)
chain: MVCGKVFKNGEPTYSCRECGVDPTCVLCVNCFKRSAHRFHKYKMSTSGGGGCCDCGDDEAWKKDHYCQLHLA
B31: PS531: amino acid recognition protein, SEQ ID NO: 159 (protein, listed as Musca domestica)
chain: B30 chain with N9I, V21M, P23Q, R34Q, F39Y, D58E, Q68E, L69E, A72R
B32: PS543: amino acid recognition protein, SEQ ID NO: 172 (protein, listed as Trichinella spiralis)
chain: MKCNRQLICGEPTYCCLDCACDQTCIFCHACFQSSEHKNHRYSMSTSEGSGTCDCGDKEAWKSNYYCLNHKP

System: amino acid at a terminal position of a polypeptide
Conditions: Table 2; amino acid at terminal position (phosphotyrosine also internal); inferred from literature and/or demonstrated by the inventors; cited from earlier work

Binding Pref., K, R, H:
B1, B2, B3, B4, B5, B6, B7, B8, B9, B10, B11, B12, B13, B14, B15, B16, B17, B18, B19, B20, B21, B22, B23, B24, B25, B26, B27, B28, B29, B30, B31, B32
